Data from CN112745389A (REYOUNG SUZHOU BIOPHARMACEUTICAL CO LTD, dated 2021).

T1: 人IL-5蛋白 (human interleukin-5) (human, UniProt P05113 20-134)
T1 sequence (looked up): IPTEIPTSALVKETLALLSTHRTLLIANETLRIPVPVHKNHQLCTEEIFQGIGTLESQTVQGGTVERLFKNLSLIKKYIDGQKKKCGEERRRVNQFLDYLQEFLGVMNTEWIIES

B1: RB0003-30E6D5 (antibody, V domains shown)
VH: EVQLQQSGAELVKPGASVKLSCTTSGFNIKDYFIHWVKQRTEQGLEWIGRIDPEDGETKYAPKFQGKATITADTSSNTAYLQLSSLTSEDTAVYYCVSYSTYPDYWGQGTTLTVSS
VL: HIVLTQSPALMSTSPGEKVTMTCSASSSVSYMYWYQQKPRSSPKPWIYLTSTLASGVPARFSGSGSGTSYSLTISSMEAEDAATYYCQQWSSTPFTFGSGTKLEIKR
B2: 人源化32D12C12抗体 (humanized 32D12C12) (antibody, V domains shown)
VH: EVQLVESGGGLVQPGGSLKLSCAASGFTFNTYAMNWVRQASGKGLEWVGRIRSKTANFATFYADSVTDRFTISRDDSKNTLYLQMNSLKTEDTAVYYCVRHGAYYTYDGAMDYWGQGTTVTVSS
VL: DIQMTQSPSSLSASVGDRVTITCKASQDVRTAIAWYQQKPGKAPKLLIYWASTRHTGVPSRFSGSGSGTDYTLTISSLQPEDFATYYCQQHYSTPYTFGQGTKLEIK

Tests used:
[1] = biological target: T1, 人IL-5蛋白 (human interleukin-5); test: cell-based or functional assay
[2] = biological target: T1, 人IL-5蛋白 (human interleukin-5); test: affinity measurement (sensorgram, 1:1 binding model; Figure 3)

Binder	IC50(ng/mL), 阻断增殖 (TF-1 proliferation, CellTiter-Glo) [1] [ng/mL]	binding result [2]
B1	16.3	
B2		binds
